We go through 4 molecules from PMC9274004, “Deciphering the Molecular Interaction Between the Adhesion G Protein-Coupled Receptor ADGRV1 and its PDZ-Containing Regulator PDZD7” (Frontiers in Molecular Biosciences, 2022).

Data set [1] can be described thus: Aggregation / sample stability of purified PDZ2 constructs. It is filed as physicochemical. An excerpt:
The biochemical behavior of PDZD7 PDZ2 drastically differs from PDZ1, with or without its C-terminal extension. […] In order to further establish the accessible folding states of the PDZ2 extension, we used the same metadynamics approach as for PDZ1ext and probed its conformational energy landscape (Figure 3C).

Data set [2] in a line: Degradation of PDZD7-GFP variants expressed in HeLa cells. To be noted: western blot, compared to the wild-type. Here is the method:
HeLa cells were maintained in Dulbecco’s modified Eagle’s medium (DMEM) containing 10% fetal calf serum (FCS). PDZD7 constructs correspond to the full-length murine sequence in fusion with a N-terminal strep tag and a C-terminal GFP, wild-type or carrying G103R/G228R variants, cloned in a PMT3 vector. The ADGRV1 construct corresponds to the murine β subunit of the receptor (5884-6298) cloned in a pRK5 vector. Plasmids were transfected in separate HeLa cultures using 25 μg (PDZD7) and 10 μg (ADGRV1) of DNA per 10 cm dish using TurboFect™ Transfection Reagent (ThermoFisher Scientific) at 3 μl per μg of transfected DNA. Mixes were prepared in volumes of 1 ml/plate (in DMEM), vortexed and incubated up to 30 min at room temperature, cell media were renewed before transfection. After drop by drop addition of the transfection mix, cells were maintained at 37°C for 14 h for protein expression. […] Cells were counted, pelleted and resuspended at similar concentrations in PBS Tween 0.01%, Dodécyl-β-D-maltoside (DDM) 0.1% containing anti-proteases (buffer). […] Target proteins were detected using mouse α-GFP (LivingColors™ JL-8, Takara) and rabbit α-ADGRV1 (custom, raised against the cytoplasmic domain) antibodies (1/2000 in 5% milk TBST), as well as secondary α-mouse and α-rabbit IgG antibodies coupled to HRP (1/2000 in 5% milk TBST). […]
(In western blotting, separated proteins are transferred to a membrane and probed.)

Another data set concerns ADGRV1 β subunit. The data set can be described thus: Pull-down of ADGRV1 β subunit by full-length PDZD7-GFP from HeLa cell lysates. It is filed as binding, murine. The note with it: PDZD7-GFP bait, anti-GFP beads, 4°C 1 h, western blot, vs no bait. As to the method:
HeLa cells were maintained in Dulbecco’s modified Eagle’s medium (DMEM) containing 10% fetal calf serum (FCS). PDZD7 constructs correspond to the full-length murine sequence in fusion with a N-terminal strep tag and a C-terminal GFP, wild-type or carrying G103R/G228R variants, cloned in a PMT3 vector. The ADGRV1 construct corresponds to the murine β subunit of the receptor (5884-6298) cloned in a pRK5 vector. Plasmids were transfected in separate HeLa cultures using 25 μg (PDZD7) and 10 μg (ADGRV1) of DNA per 10 cm dish using TurboFect™ Transfection Reagent (ThermoFisher Scientific) at 3 μl per μg of transfected DNA. Mixes were prepared in volumes of 1 ml/plate (in DMEM), vortexed and incubated up to 30 min at room temperature, cell media were renewed before transfection. After drop by drop addition of the transfection mix, cells were maintained at 37°C for 14 h for protein expression. Cells were dissociated using Gibco™ Trypsine-EDTA (0,05%), subsequently inactivated by addition of DMEM containing 10% FCS. Cells were counted, pelleted and resuspended at similar concentrations in PBS Tween 0.01%, Dodécyl-β-D-maltoside (DDM) 0.1% containing anti-proteases (buffer). Benzonase (Sigma) was added before sonication of the cells (40 mA amplitude, 10 pulses of 12 s with 18 s intervals, in ice). An identical volume of ADGRV1 β transfected cell lysate was mixed to either PDZD7 WT, G103R or G228R transfected cell lysates. PDZ proteins have different expression levels, meaning that different amounts of sample are needed to saturate the dynabeads with the PDZ proteins. Pull down experiments have been performed several times allowing us to estimate the yield of expression of each PDZ construct for a given amount of cells. […] Target proteins were detected using mouse α-GFP (LivingColors™ JL-8, Takara) and rabbit α-ADGRV1 (custom, raised against the cytoplasmic domain) antibodies (1/2000 in 5% milk TBST), as well as secondary α-mouse and α-rabbit IgG antibodies coupled to HRP (1/2000 in 5% milk TBST). […]

B1: PDZ2: second PDZ of mouse PDZD7 (G206 to G292) (protein)
chain: GVRRIVHLYTTSDDFCLGFNIRGGKEFGLGIYVSKVDHGGLAEENGIKVGDQVLAANGVRFDDISHSQAVEVLKGQTHIMLTIKETG
modifications: left off: GST, N-terminal, cleaved
As to B1, the sample stability result in data set [1] (15N-labelled PDZ2 constructs, NMR) is recorded as “stable for a few hours only”. Further, the aggregation entry in data set [1] (at temperatures higher than 15 °C, despite extensive screening of buffer conditions) is “Rapid aggregation”.

B2: PDZ2 G228R: PDZD7 PDZ2 carrying deafness-causing mutation G228R (protein, UniProt E9Q9W7 206-292, looked up, variant G228R)
chain: GVRRIVHLYTTSDDFCLGFNIRRGKEFGLGIYVSKVDHGGLAEENGIKVGDQVLAANGVRFDDISHSQAVEVLKGQTHIMLTIKETG
Consider B2, for which the aggregation entry in data set [1] (during biophysical experiments, low yield) is given as “severe aggregation”.

B3: G103R: full-length murine PDZD7-GFP carrying G103R variant (protein, UniProt E9Q9W7 1-1021, looked up, variant G103R)
chain: MARGFTVGFDPLGLGELSSGSLSSVSSRGHLGSDSGSTATRYLLRKQQRLLNGPSRGIRASSPMGRVILINSPIEANSDESDIIHAVRVEKSPSGRLGFSVRRGSEHGLGIFVSKVEEGSSAERAGLCVGDKITEVNGLSLESTTMGSAVRLLTSSSCLHMMVRRMGRVPGIKFSKEKTTWVDVVNRRLVVEKCSSTPSDRSSEDGVRRIVHLYTTSDDFCLGFNIRGGKEFGLGIYVSKVDHGGLAEENGIKVGDQVLAANGVRFDDISHSQAVEVLKGQTHIMLTIKETGRYPAYKEMVSEYCWLDRLSNGVLQQLSPASESSSSVSSYASSAPCSSGSLPSDRMDVCLGPEEPTSHGPGWGRADTAMQTEPDLDSRVETWCSVRPTVILRDTAIRSDGPSSTRHLDSALSESPKTALLLALSRPRTPITRSQSHLTLWEEKKQRKKEKSGSSGEKGALQRSKTLMNLFFKGGRQGRPAGDGHREAWTLDSRSPTKVRPRLDLEKAGSVGPVQKFVTWRLRRDRERGRALLSARSGSPSGQAPTVNEQVQAWESRRPLIQDLARRLLTDDEVLAVTRHCSRYVHEGGVEDLVRPLLAILDRPTKLLLLRDIRSVVAPTDLGRFDSMVMPVELEAFEALKSRAVGPSALRPTRQDTPPKRHLITPVPDSRGGFYLLPVNSSEDEDGEIREKLGVLKVSLGASAPHHKGIPPLQDVPVDAFSLRRGACAPPPQPPPVAPRPPRPNWLLTEPLSREDTQQNQSQTPAQSCSRSRSRSRSRSHSRGQGKSPGRRRSPSPAPIATAATANGRYHRPRKARPLLPRLLDGQVAKVGARQGPLENGRIAEEAVGNVSTGALRTITLSKMKQSLGISISGGIESKVQPMVKIEKIFPGGAAFLCGDLQAGFELVAVDGESLEQVTHQRAVDTIRRAYRNKAREPMELVVRVPGPGLLPLASDLRVVKDQSLAPDCPSALGPVDDARILTQLPPPEARQLQQSLSSALKVPQSIPKLSPILKDPHDPS
modifications: full-length C-terminal GFP fusion
notes: full-length murine PDZD7-GFP carrying G103R variant
For B3, in data set [2], the degradation entry was “higher tendency for degradation”. In addition, the “binding of ADGRV1 β subunit (pull-down)” value in the data set with ADGRV1 β subunit is “a decrease of ADGRV1 quantity bound to the beads was observed in comparison with wild-type PDZD7, similar to the experiment performed without bait”.

B4: G228R: full-length murine PDZD7-GFP carrying G228R variant (protein, UniProt E9Q9W7 1-1021, looked up, variant G228R)
chain: MARGFTVGFDPLGLGELSSGSLSSVSSRGHLGSDSGSTATRYLLRKQQRLLNGPSRGIRASSPMGRVILINSPIEANSDESDIIHAVRVEKSPSGRLGFSVRGGSEHGLGIFVSKVEEGSSAERAGLCVGDKITEVNGLSLESTTMGSAVRLLTSSSCLHMMVRRMGRVPGIKFSKEKTTWVDVVNRRLVVEKCSSTPSDRSSEDGVRRIVHLYTTSDDFCLGFNIRRGKEFGLGIYVSKVDHGGLAEENGIKVGDQVLAANGVRFDDISHSQAVEVLKGQTHIMLTIKETGRYPAYKEMVSEYCWLDRLSNGVLQQLSPASESSSSVSSYASSAPCSSGSLPSDRMDVCLGPEEPTSHGPGWGRADTAMQTEPDLDSRVETWCSVRPTVILRDTAIRSDGPSSTRHLDSALSESPKTALLLALSRPRTPITRSQSHLTLWEEKKQRKKEKSGSSGEKGALQRSKTLMNLFFKGGRQGRPAGDGHREAWTLDSRSPTKVRPRLDLEKAGSVGPVQKFVTWRLRRDRERGRALLSARSGSPSGQAPTVNEQVQAWESRRPLIQDLARRLLTDDEVLAVTRHCSRYVHEGGVEDLVRPLLAILDRPTKLLLLRDIRSVVAPTDLGRFDSMVMPVELEAFEALKSRAVGPSALRPTRQDTPPKRHLITPVPDSRGGFYLLPVNSSEDEDGEIREKLGVLKVSLGASAPHHKGIPPLQDVPVDAFSLRRGACAPPPQPPPVAPRPPRPNWLLTEPLSREDTQQNQSQTPAQSCSRSRSRSRSRSHSRGQGKSPGRRRSPSPAPIATAATANGRYHRPRKARPLLPRLLDGQVAKVGARQGPLENGRIAEEAVGNVSTGALRTITLSKMKQSLGISISGGIESKVQPMVKIEKIFPGGAAFLCGDLQAGFELVAVDGESLEQVTHQRAVDTIRRAYRNKAREPMELVVRVPGPGLLPLASDLRVVKDQSLAPDCPSALGPVDDARILTQLPPPEARQLQQSLSSALKVPQSIPKLSPILKDPHDPS
modifications: full-length C-terminal GFP fusion
notes: full-length murine PDZD7-GFP carrying G228R variant
In the case of B4, the degradation result in data set [2] is listed as “higher tendency for degradation”. For the same molecule, in the data set on ADGRV1 β subunit, the “binding of ADGRV1 β subunit (pull-down)” value is on record as “a decrease of ADGRV1 quantity bound to the beads was observed in comparison with wild-type PDZD7, similar to the experiment performed without bait”.
